Consider 131 substances from the supplement of paper PMC12042874.

± gives the uncertainty stated by the source.

This series is described as follows: amyloid nucleation score (Sup35N fusion, yeast selection) (log enrichment); library NNK3; higher = more nucleation; inactive = no reads after selection. In a few lines: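 On medium lacking adenine and uracil, psi-negative yeast expressing peptides of 20 random codons fused to Sup35N were grown 7 days at 30°C after a 24-hour induction with 100 μM copper sulfate. Illumina sequencing of input and output plasmid inserts gave the reads, and sequences under 100 input reads were excluded. The nucleation score is the DiMSum log enrichment of output over input reads, centred on the mode score of non-aggregating sequences.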
For the substance YSVPRKSIICIKFDGFWRCV, the amyloid nucleation score was 1.96 ± 0.096.
Then SLIYTKYLLMYFIILFLDGG, with “inactive”.
IYLASSLNRILISEQSILPG: the amyloid nucleation score result is “inactive”.
Then WDHTA, with “inactive”; and ASNSIKWFADHFPHSFVN, with “inactive”.
Then RRIASEWDLTTVPLLLV, with “inactive”; and FDDYLKSYFKQYSNDHVG, with “inactive”; and KLYLLLLYFLDMTVFWFVAV, with “inactive”.
In the case of GNSDR it was “inactive”; in that of VSVLYYLKY, 0.132 ± 0.28.
Regarding AVNMLESFFGGVPLRSLCFV, the amyloid nucleation score entry was “inactive”.
Then TMSGFYYNSFIRYNLAL, with “inactive”; and KDFIMHNILYMRRWAFTPLA, with “inactive”; and TLVVMEIIQLLSFSHGPFI, with “inactive”.
Then TKRCKYCTKGNVQTHTWVAF, with 0.466 ± 0.23.
In the case of LRSCSSWRRLFKRIVQRHWV it was “inactive”.
Regarding RYCNASY, the amyloid nucleation score result is “inactive”.
Then MIYSYTNFGNIWKVCQVMRH, with 2.39 ± 0.057; and TWDMSLT, with “inactive”; and FKSCLRTC, with “inactive”.
Then EIRMRMIKRFVYD, with 1.16 ± 0.17; and WYFPTQ, with “inactive”; and IYGTANSKFSCIIYR, with 2.09 ± 0.091.
In the case of FVSMRIYGGLRRWHHEYLVV it was “inactive”; in that of IGVYWVLPPGFFGWQNTLMI, 0.161 ± 0.56.
LYLRV: the amyloid nucleation score entry is “inactive”.
In the case of NWNIGPRKLCKWRCR it was “inactive”; in that of RFVGSGCSGWCSRARDLWWL, “inactive”.
In the case of GAMNVESLSMFMRVYYVPYR it was “inactive”; in that of ILVLDSWYVACTTACKGTNK, -1.57 ± 2.5; in that of IVQAFVSVLSY, “inactive”.
In the case of NFLFISYYVPGQCTV it was “inactive”; in that of RITGALRAFGSRTFCASCVC, “inactive”; in that of WFVSSWKNSHLKCGL, “inactive”.
Take YQVHWFSNYTTAWMNYVSTV: the amyloid nucleation score result is “inactive”.
For KSASKVGLMKAYRNASRTVI, the amyloid nucleation score entry is “inactive”.
As to ILRCVFRGYMYYVMGSFYLT, the amyloid nucleation score entry was “inactive”.
Then MNEGLYS, with “inactive”; and FSALWTRHKWNFPRMTTFAR, with “inactive”; and GGMHRAYMESVSDVYLRKWW, with 0.308 ± 0.21.
In the case of DLSSSGCKLSRIFHGHNWSR it was “inactive”.
Turning to CIGWRIM, the amyloid nucleation score entry was “inactive”.
Consider VNLNKGLRWNYFGDDMKPHR, for which the amyloid nucleation score was 1.19 ± 0.073.
In the case of WSRSSV it was “inactive”.
Consider STITYHLDIEVRKCWVFYMY, for which the amyloid nucleation score result is “inactive”.
As for CVYQLLGLVKMRNIRADGHA, the amyloid nucleation score entry was “inactive”.
As to ESRVPRSIKDSL, the amyloid nucleation score result was “inactive”.
In the case of IKGQSLSNSVFWSGGLDLRV it was “inactive”.
Then STYVCDGIDG, with “inactive”; and IDSDMDKNS, with “inactive”.
Turning to KRYMIPKIYERNENYSFEQI, the amyloid nucleation score entry was “inactive”.
For PENDRNMLLVSVIVPRYIAT, the amyloid nucleation score result was “inactive”.
In the case of FGSLRCFGWLAWSICVNMYY it was “inactive”.
In the case of LAWIVCDCIGQCCTFIVRVW, the amyloid nucleation score result was “inactive”.
Then NRTMLFEEKYVG, with “inactive”; and LNPLPQRLYSPCSLKFCNDG, with “inactive”.
Then YSATGIPSCWRLNFVENLRT, with “inactive”.
In the case of RKEVEGGVPALYDDMRIFES it was “inactive”; in that of NIVAVRCWFLDFPQDD, “inactive”; in that of IIHLENMPICQGALIDGLAL, “inactive”.
As for VDVSRTFALCHRDLPMMP, the amyloid nucleation score entry was “inactive”.
In the case of DKHMIGLYNPRASIELL it was “inactive”; in that of VPNLEVSLKAFSSIVSFVRG, “inactive”; in that of YGCCVSGMYVALGLQ, 2.8 ± 0.068.
CGIMPLSHGIDLMFVRVTPG: the amyloid nucleation score entry is “inactive”.
In the case of LNVSRGWLVNILPYGCNI it was “inactive”.
In the case of SEVRSLKHVGLCIQSMGSAL it was “inactive”; in that of PFLTTKIVQVAGDLVNMFYE, 1.24 ± 0.16.
Then FKFVQDAHQNLGVIRSYRRS, with “inactive”; and NISSTSFRMGNIIGNEFLVY, with “inactive”.
Take QDTLVPYMFKQITVYVYGLA: the amyloid nucleation score entry was “inactive”.
In the case of FRQYHMRRVRLHGRRDVYGQ it was “inactive”; in that of THHWKFGSNPSFR, “inactive”.
Turning to PTAFWGFGF, the amyloid nucleation score entry was “inactive”.
In the case of ASILRTKMLVCKGGKILQLQ it was “inactive”; in that of GWLYYQLNLDNTSVRQHWSV, 0.587 ± 0.24.
In the case of TTSVIAGLW it was “inactive”; in that of EYENLYLRVQFSYMLLFLVM, -1.33 ± 1.8.
Then FNPKSWKVTKLYFKMYNRLD, with “inactive”; and SISIFHNCF, with 2.66 ± 0.063; and LASPVNETDTLHRALQMLSK, with “inactive”.
Consider SRPILLLSFCFRCAIC, for which the amyloid nucleation score entry was “inactive”.
Then NRMQVMLSVVRSSLFVWMQW, with “inactive”.
Then LYAFRDSCDTFSC, with “inactive”; and TCSRLVDQFNTFGTVY, with “inactive”.
As for LAGTTSASWGGS, the amyloid nucleation score result was “inactive”.
LSLMSSVGCRCSVFSWLYVN: the amyloid nucleation score entry was “inactive”.
In the case of NLVSQK it was “inactive”.
In the case of GYFARLR it was “inactive”.
Then RSERVRNSKLTVCVIYKYIK, with “inactive”.
GIFVGPSVDSLLKLRARSHY: the amyloid nucleation score entry is “inactive”.
In the case of RFLLLRSCMSIDWRVGLEIF it was “inactive”.
Then FVFIQSHYQNMRFGKF, with “inactive”; and DIPAVINVMGSVYDGR, with “inactive”; and IGHGYMVDRWILRVVMVVAL, with “inactive”.
Then KVFFVRTIIKVRVAGCSVRV, with “inactive”; and LNRWCCFSVITMCLMANFDA, with 2 ± 0.089.
AFINMMWNSTMDLCRPFLPT: the amyloid nucleation score was found to be 0.698 ± 0.27.
In the case of HHNTYCYVLFELFTV it was 0.505 ± 0.49.
Then SSYLPHHISSQRLSSQEPAD, with “inactive”; and FRYQDNDLLAHAA, with -0.474 ± 1.
In the case of MLGLCPFKSDWLLIYRSMWC, the amyloid nucleation score amounted to 1.32 ± 0.15.
In the case of RGICGNQLCRVMPLLNPHGC it was “inactive”; in that of LDEGPPSAWVFATKTNFCES, “inactive”.
Then HATGSMNVSVSAGVRQQILR, with “inactive”; and IMMIDWWYMFGCYACLETCH, with “inactive”.
With YVCRRVSQDVRNLTKSVMCV, the amyloid nucleation score result is “inactive”.
Then VLCAYK, with “inactive”.
Turning to GMTVLLSMVI, the amyloid nucleation score entry was “inactive”.
Turning to TLGLAVFDNSMDRWYEDVKK, the amyloid nucleation score entry is “inactive”.
For the substance RFHVLINCFSAAGRGNPGSR, the amyloid nucleation score amounted to 1.69 ± 0.068.
In the case of EFQNISWYTKLEGEYCGEMV it was “inactive”; in that of LTGRISIARFEVDLGFGCPS, 0.682 ± 0.18.
Then RFRSRS, with -0.02 ± 1.1; and GVRHLYVPMFHFVIMGRWHH, with “inactive”; and TSDIAPFRDLLIASA, with “inactive”.
As for YHLSSMVTVWKDSVMLAT, the amyloid nucleation score entry was “inactive”.
Then RVSSGSIVTRQHDLN, with “inactive”; and WNLLWLLFFLCLCHCGIMWK, with “inactive”.
Then SMFSLWNS, with “inactive”; and VVRFFLRTRTEGGYTWVLK, with “inactive”.
In the case of LYLRQKYLRALTNFNFPRAT it was “inactive”.
Turning to WSGCMWSCARGYGSFPSGPL, the amyloid nucleation score entry was “inactive”.
Then RIRVSNVCSHQFWLIYGNDT, with 2.15 ± 0.057; and MFKITACIFNIAYSSWFFST, with “inactive”; and SLLFTGHLCLYHTLVCCVFI, with 1.28 ± 0.11.
Regarding FGTPMVNVCMPS, the amyloid nucleation score entry was “inactive”.
With AKWLEEKLMPAIDVVPGQWL, the amyloid nucleation score entry was “inactive”.
Turning to CWYQPPNDNVYFMMILYI, the amyloid nucleation score was found to be 1.97 ± 0.084.
Then YTLVDRSICT, with “inactive”.
Turning to LSYFSLLGFRYSRGVMGYQM, the amyloid nucleation score result was “inactive”.
